Measurements taken from patent US20020147999A1 (J DAVID GLADSTONE INSTITUTES, published 2002).

B1: Ala-Ala-Pro-Phe (SEQ ID NO:1) (peptide)
peptide: AAPF
B2: Ala-Ala-Ala-Ala-Pro-Phe (SEQ ID NO:4) (peptide)
peptide: AAAAPF
B3: Ala-Ala-Pro-Leu (SEQ ID NO:3) (peptide)
peptide: AAPL

Biological target: apoE cleavage enzyme (chymotrypsin-like serine protease; in mouse brain lysate or roughly/partially purified)
Test: cell-based or functional assay

Binder	inhibition of apoE cleavage enzyme activity (chromogenic assay, 1 mM Ala-Ala-Pro-Phe-p-nitroanilide; 6 mM peptide; 20 hour incubation)
B1	67%
B2	58%
B3	56%
